Measurements from US8679782B2, “Production of triacylglycerides, fatty acids, and their derivatives” (Massachusetts Institute of Technology, priority 2009, dated 2014).

Legend:
[1] = Heparin-sepharose binding
Method: Purified TadA was diluted to a final concentration of 500 μg/ml in dialysis buffer. 100 mg of Heparin-sepharose CL-6B (GE Healthcare, Piscataway, N.J.) was resuspended in 5 ml of Tris buffer (20 mM Tris (pH7.0), 100 mM NaCl) and allowed to rehydrate with gentle agitation for 1 h. Following rehydration, the resin was pelleted via centrifugation at 1000×g for 2 minutes and subsequently washed 3 times in the same buffer. The resin was resuspended in 1 ml of Tris buffer to which 500 μg of purified TadA was added. The Sepharose-TadA slurry was incubated at 4° C. for 1 h with gentle agitation. Following incubation, the resin was pelleted, an aliquot of the supernatant was removed (flow-through fraction), the Sepharose was washed 5 times with Tris buffer and an aliquot of the supernatant from the final wash was removed (wash fraction). The remaining heparin-sepharose was resuspended in 1 ml of Tris buffer from which an aliquot was removed (beads fraction). 5× SDS-PAGE loading buffer was added to each aliquot, which were then boiled for 5 min. Samples were resolved using 10% acrylamide Ready gel Tris-HCl SDS-PAGE gels (Bio-Rad, Hercules, Calif.) and stained using colloidal coomassie as previously described (18, 31).

[2] = test system: purified lipid bodies; assay: Lipid aggregation assay with purified lipid bodies; type: biochemical, R. opacus PD630
Method: Lipid bodies were purified from R. opacus PD630 as previously described (27) with minor modifications. Briefly, R. opacus was grown for 96 h in minimal media supplemented with 4% glucose and 0.15% ammonium sulphate. Cultures were harvested via centrifugation at 6000×g for 20 minutes. Cell pellets were resuspended in 25 ml of PBS and lysed by passing through a French pressure cell set at 18,000 psi 5 times. An equal volume of 80% glycerol was added to lysates followed by centrifugation at 6000×g for 3 h at 4° C. Following centrifugation, the upper layer (lipid body fraction) was removed to 40 ml of 40% glycerol (tube #1) and the pellet (cell debris) was resuspended in 40 ml of 40% glycerol (tube #2) followed by a second centrifugation at 6000×g for 3 h. The lipid body layer (upper layer) from tube #1 was removed to 20 ml PBS and the cell debris (pellet) from tube #2 was resuspended in 20 ml of PBS followed by centrifugation at 7500×g for 30 min. All fractions were then resuspended in 5 ml of PBS and used immediately. […] Wells were imaged using a Canon Powershot SD1200 IS digital camera (Canon, Lake Success, N.Y.). To obtain a more quantitative measure of aggregation, 2 μl of the supernatant was removed from each well and the optical density at 600 nm was determined using a Nano-Drop spectrophotometer (Thermo Scientific, Wilmington, Del.).

[3] = test system: purified lipid bodies; assay: Western blotting of lipid bodies from the aggregation assay; type: binding, R. opacus PD630; settings: supernatant and washed lipid body fractions
[4] = test system: yeast; assay: Yeast agglutination assay; type: cell-based; settings: FIG. 85
[5] = NAD(P)H-dependent glyceraldehyde 3-phosphate dehydrogenase (ND-G3PDH) activity assay; type: biochemical; settings: purified histidine-tagged protein vs empty vector fractions; G3P and NAD(P)+
Method: NP-G3PDH activity was assayed as previously described with minor modifications (9). Briefly, reactions contained 1 mM NAD(P)+, 1 mM glyceraldehyde 3-phosphate and either […] of purified TadD or […] of crude bacterial lysate in a final volume of 1 ml. Reactions were incubated at 37° C. for one hour. Following incubation, the optical density of the reactions was measured at 340 nm. R. opacus cultures were grown in either lysogeny broth or MR medium supplemented with 4% glucose and 0.15% ammonium sulphate for 24 hours prior to mechanical disruption using a French pressure cell. Cellular debris was pelted by centrifugation at 20,000×g for 30 minutes.
Additionally, we fractionated supernatant from E. coli containing the parental plasmid which was used as an empty vector control. Fractions containing the histidine tagged TadD protein (and the corresponding fractions from the empty vector fractionation) were then used in ND-G3PDH activity assays.

Molecule | binding to heparin-sepharose in the presence of pure heparin ([1]; control with pure heparin) | binding to heparin-sepharose (SDS-PAGE of flow through, wash, beads) ([1]; purified hexa-histidine protein) | optical density at 600 nm of the supernatants ([2]; 2 μl supernatant from each well) | lipid body aggregation and flocculation (96 well dish) ([2]; increasing protein concentrations, 12 h room temperature) | size of lipid body aggregates (Nile Red fluorescent microscopy) ([2]; samples from the aggregation assay) | association with lipid bodies (anti-penta-histidine Western blot) [3] | yeast agglutination [4] | NAD(P)H formation (increase in optical density at 340 nm) [5]
TadA: R. opacus PD630 heparin-binding hemagglutinin homolog, SEQ ID NO:11 (protein, listed as Rhodoccus opacus) MTDQKTIDSVKTSLYAAVGAGDVVVQAVADVVAQVRSRAESTQGDVEERVGGAKERIAGLQEEVTEGVENLRDRLAGLPSELPEELAELREKFTADELRKVAEAYLKVASDLYTSLAERGEDTVERIRKQPVVEEGIGRAETAFGDAVELTEEALGTVARQTRAVGEQAAKLAGRASGRISDTAEGLGEAIADAGDEAALKVLDLGDQAEEASKDAADRVAATAADVQAQADKAAQAKHAAPAKKAAPAKAAATPAPAPAKKVAAPAKKAAPAKKA | completely abrogated any binding | the majority of the protein was found associated with the heparin-sepharose | decreases as protein concentration increases | capable of inducing lipid body aggregation and subsequent flocculation in a dose-dependent manner | aggregated into very large clumps | detected in both the supernatant as well as the lipid body fractions | yeast agglutination mediated by TadA | 
TadD: R. opacus PD630 non-phosphorylating NAD(P)+-dependent glyceraldehyde 3-phosphate dehydrogenase homolog, SEQ ID NO:4 (protein, listed as Rhodoccus opacus) MSIAADSLSNITPPGLTIDGEITTTAAVIPVINPATESAFIEVPDAGVEQLDAAVSAARRAAKHWATHDLPFRQGIVLRLVDHVRANIDELARLVTLEQGKPLAKAAGEIESGLRGLERYASWDIPVEVIRDNDDELIEVHRAPVGVVGGITAWNYPLLLALWKIGPALITGNPIIVKPSPLTPVATLRLGELAQQILPPGVLQVLSGGDDLGRAMTAHTGIDKITFTGSERAGKSIMAGAGATLKRLTLELGGNDPGIVLDDVDVASIAADLYWGALSNCGQVCAGLKRLYVPQHLAPAIEEALAEVAKGVKVGNGLDDGVDMGPVQNAAQFTKVRGYVDDAANRGADVYFRGEVPEGPGYFHPVTLVRGVDDSVPLVREEQFGPVLPILTYTDIDDVIARANDSELALGASVWSSDEQRATEVAERVEAGTVWVNQHPMLSSDVPFGGVKQSGLGVEQSIHGVLEYTNYRVLRVKR |  |  |  |  |  |  |  | significantly more NAD(P)H
